Kd data for 13 substances are collected here from paper PMC11316819.

In this assay the target is EEEV PE6 virus-like particle (Eastern equine encephalitis virus, strain PE6). As to the kind of experiment: BLI.
What is called Kd is a measure of binding affinity in units of concentration. High values mean weaker binding, low ones tighter binding. Turning to “VLDLR LA3-6-Fc (from UniProt P98155-1 111-276) (Fc fusion)”, the Kd came to 0.0715 µM.
To “VLDLR LA2-3-Fc (from UniProt P98155-1 70-151) (Fc fusion)” belongs 1.8 µM.
Take “VLDLR LA2-5-Fc (from UniProt P98155-1 70-231) (Fc fusion)”: the Kd was found to be 0.0425 µM. This Kd lies about 42-fold lower than the previous one.
To “VLDLR LA2-4-Fc (from UniProt P98155-1 70-190) (Fc fusion)” belongs 1.1 µM.
In the case of “VLDLR LA1-2-Fc (from UniProt P98155-1 28-113) (Fc fusion)” it was 0.505 µM; in that of S. vulgaris VLDLR LA1-8-Fc (Fc fusion), 0.011 µM.
“VLDLR LA3-5-Fc (from UniProt P98155-1 111-236) (Fc fusion)” came in with a dissociation constant Kd of 0.0323 µM.
To “VLDLR LA4-5-Fc (from UniProt P98155-1 152-236) (Fc fusion)” belongs 11.9 µM; to “VLDLR LA1-3-Fc (from UniProt P98155-1 28-152) (Fc fusion)”, 0.363 µM; to “VLDLR LA4-6-Fc (from UniProt P98155-1 152-275) (Fc fusion)”, 2.3 µM.
To “VLDLR LA5-6-Fc (from UniProt P98155-1 191-275) (Fc fusion)” belongs 4.2 µM; to “VLDLR LA3-4-Fc (from UniProt P98155-1 111-190) (Fc fusion)”, 3.9 µM.
In the case of ApoER2_(iso2) LA1-3-Fc (Fc fusion) it was 0.705 µM.
